Columns and labels:
[1] = molecular target: T1, SARS-CoV-2 N protein oligomerization domain (SARS-CoV-2, UniProt P0DTC9 247-364); assay: Octet, KD (nM) heat map
T1 construct: also called N olig. domain; OD

[2] = molecular target: T2, SARS-CoV-2 N protein, full-length (SARS-CoV-2, UniProt P0DTC9 1-419); assay: Octet (BLI) kinetics
T2 construct: mature; also called SARS-CoV-2 nucleoprotein

[3] = molecular target: T3, SARS-CoV-2 N protein RNA-binding domain (SARS-CoV-2, UniProt P0DTC9 44-180); assay: Octet (BLI) kinetics
[4] = molecular target: T3, SARS-CoV-2 N protein RNA-binding domain; assay: Octet, KD (nM) heat map

Binder | binding result [1] | Kd [2] [nM] | Kd [3] [nM] | binding result [4]
NP3-G5 (antibody, V domains shown) VH: EVQLVESGPELKKPGEPVRISCKASGYTFTDYGMNWVKQAPGKGLKWMGWINTYTGEPTYADDFKGRFAFSLETSASTAFLQITNLKNEDTATYFCARAPLLRSYFDYWGQGTSVTVSS VL: DIVMTQSHKFMSTSVGDRISITCKASQDVSTAVVWYQQKPGQSLKLLIYSASYRYTGVPDRFTGSGSGTDFTFTISSVQAEDLAIYYCQQYYSTPFTFGSGTKLEIK | no binding | – | – | –
NP3-E4 (antibody, V domains shown) VH: EVQLVESGPGLVAPSQSLSITCTVSGFSLTSYGVSWVRQPPGKGLEWLGVIWGDGSTNYHSALISRLSINKDNSKSQVFLRLNSLQTDDTATYYCAKEDDGYLFYFDYWGQGTTLTVSS VL: DIKMTQSPSSLSASLGDRVTISCSASQDISDYLNWYQQKPDGTVKLLIYYTSSLHSGVPSRFSGSGSGTDYSLTISNLEPEDIATYYCQQYSKLPYTFGGGTKLEIK | no binding | 0.71 | 3.46 | –
NP3-B1 (antibody, V domains shown) VH: QVQLQQSGPELVKPGTSVTVYCKASGYTFTTYNIYWVKQSHGKSLEWIGYIDPYNGGTSYNQKFKGKATLTVDKSSSAAYMHLNSLTSEDSAVYYCALPWDYWGQGTTVTVSS VL: not shown | no binding | 2.01 | – | –
NP3-D1 (antibody, V domains shown) VH: DVQLQESGPELAKPGASVKVSCKASGYTFTSYNIYWVKQSHGKSLEWIGYIDPYNGGTSYNQKFKGKATLTVDKSSSTAYMHLNSLTSEDSAVYYCALPWDYWGQGTSVTVSS VL: not shown | no binding | 5.63 | 0.0015 | –
NP3-A11 (antibody, V domains shown) VH: EVQLQESGPELKKPGETVKISCKVSGYTFTNYGMNWVKQAPGKGLKWMGWINTYTGEPKYGDDFKGRFALSLETSAGTAYLRINNLKNEDTATYFCARSHGNYENHFDYWGQGTTLTVSS VL: DIQMTQSPSSLSVSVGETVTITCRASENIYSSLAWYQQKQGKSPQLLVYTATDLADGVPSRFSGSGSGSQYSLRINSLQSEDFGSYYCQHFWGFPWTFGGGTKLEIK | no binding | 0.71 | 1.01 | –
NP3-C5 (antibody, V domains shown) VH: QIQLVQSGPELKTPGETVKISCKASGYTFTNCGMHWVKQAPGKGLKWMGWINTYTGEPIYADDFKRRFAFSLETSASTAYLQINNLNNEDTASYFCARRDDVYYVAGFDYWGQGTTVTVFS VL: DIQMTQSPASLSVSVGETVTITCRASENIYSNLAWYQQKQGKSPQLLVYGATDLADGVPSRFSGSGSGTQYSLKINSLQSEDFGSYYCQHFWGTPWTFGGGTKLELK | no binding | 0.73 | 0.62 | –
NP3-E3 (antibody, V domains shown) VH: QIQLVQSGPDLKKPGETVKISCKASGYTFTDYSMHWVKQVPGKGLKWMGWINTETDKPTYADDFKGRFAFSLETSASTAYSQINNLKNEDTATYFCARHYKYDEAWSPYWGQGTLVTVSA VL: DIVLTQSPASLSVSVGETVTITCRASENIYSNLAWYQQKQGQSPQLLVYAATDLADGVPSRFSGSGSGTQYSLKINSLQSEDFGNYYCQHFWGTPWTFGGGTKLEIK | no binding | – | 1.36 | –
NP3-B9 (antibody, V domains shown) VH: EVQLQQSGPELKKPGETVKISCKTSGYTFTNCGMHWVKQAPGKGLKWMGWINTYTGEPTYADDFKGRFAFSLETSVNTAYLQINNLKSEDTASYFCARRDDVYYVAGFDYWGQGTTLTVSS VL: DIQMTQSPASLSVSVGETVTITCRASENIYSNLAWYQQKQGKSPQLLVNGATDLADGVPSRFSGSGSGTQYSLKINSLQSEDFGSYYCQLFWGTPWTFGGGTKLEIK | no binding | 0.38 | 0.47 | –
NP3-H9 (antibody, V domains shown) VH: QIQLVQSGPELKKPGETVKISCKASGYTFTDYPIHWVKQAPGKGLKWMGWINAETGEPTYADDFKGRFVVSLETSASTAYLQINNLKNEDTATFFCARHYRYDEAWFVYWGQGTLVTVSA VL: DVQITQSPSSLSVSVGETVTITCRASENIYSNLAWYQQKQGKSPQLLVYAATDLADGVPSRFSGSGSGTHYSLKINSLQSEDFGSFYCQHFWGTPWTFGGGTKLEIK | no binding | 5.2 | 3.16 | –
NP3-F4 (antibody, V domains shown) VH: EVQLVESGPELKKPGETVKIPCKTSGYTFTNYGMNWVKQAPGKGLKWMGWINTNTGEPTYAEDFKGRFAFSLETSASTAYLQISNLKNEDTATFFCARGSIYDGYYEGLYYWGQGTTLTVSS VL: DIKMTQSPSSLSVSVGETVTITCRASENIYSNLAWYQQKQGKSPQLLVSAATNLADNVPSRFSGSGSGTQYSLKINSLQSEDFGSYYCQHFWGFPRTFGGGTKLEIK | no binding | 2.84 | 5.57 | –
NP3-D5 (antibody, V domains shown) VH: DVQLQESGPELVRPGVSVKISCKGSGYTFTDYVMHWVKQSHAKSLEWIGVISTYSGNTNYNQKFKGKATMTVDKFSNTAYMELARLTSEDSAIYYCTRGTGDFDYWGQGTTLTVSS VL: DIVMTQSHKFMSTSVGDRVSITCKASQDVGTAVAWYQQKPGQSPKLLIYWASTRHTGVPDRFTGSGSGTDFTLTISNVQSEDLADYFCHQYSSYPYTFGGGTKLEIK | no binding | – | – | –
NP3-E11 (antibody, V domains shown) VH: EVQLQQSGPELVRPGVSVKISCKGSGYTFTDYVMHWVKQSHAKSLEWIGVISTYSGNTNYNQKFKGKATMTVDKSSNTVYMELARLTSEDSAIYYCTRGTGDFDYWGQGTTLTVSS VL: DIVMTQSHKFMSTSVGDRVSITCKASQDVGSAVAWYQQKPGQSPKLLIYWTSTRHTGVPDHFTGSGSGTDFTLTINNVQSEDLADYFCHQYSSYPYTFGGGTKLEIK | no binding | 1.23 | 0.57 | –
NP3-E2 (antibody, V domains shown) VH: EVQLQQSGPEVVRPGVSVKISCKGSGYTFTDYALHWVKQSHTKSLEWIGVISTYSGTTNYNQNFKGKATMAVDKSSSTAYMELARLTSEDSAIYYCASGGNYGLDYWGQGTSVTVSS VL: DIVMTQSHKFMSTSVGDRVSITCKANQDVGSAVAWYQEKPGQSPKLLIYWTSTRHTGVPDRFTGNGSGTDFTLTISNVQSEDLVDYFCQQYSRYPLTFGSGTKLELK | no binding | 0.57 | – | –
NP3-H12 (antibody, V domains shown) VH: QIQLVQSGPELKKPGETVKISCKASGYMFTNYGMNWVKQAPGKGLKWMGWINTYTGEPTYADDFKGRFAFSLDISGSTAYLQINNLKNEDMATYFCARTREIWGNVDFPYWGQGTLVTVSA VL: DILMTQAAPSLSVSVGETVTITCRASENIYSDLAWYQHKEGKSPQLLVYAATDLADGVPSRFSGSGSGTQYSLKINSLQSEDFGNYYCQHFWGTPWTFGGGTKLEIK | no binding | 0.72 | 1.89 | –
NP3-B4 (antibody, V domains shown) VH: EVQLVESGGGLVQPGGSVKLSCLASGFTFSDYYMSWVRQSPEKGLEWVAEIRLESDNYATHYAESVKGKFTISRDDSKSRLYLKMNSLRGEDTGIYYCAFDVYYGGAMDYWGQGTTVTVSS VL: DIQMTQSPSIMSASPGEKVTMTCSASSSVSYMHWYQQKSSTSPKLWIYDTSELASGVPGRFSGSRSGNSYSLTISSMEAEDVATYYCFQGSGYPLTFGGGTKLELK | – | – | – | no binding
NP3-B2 (antibody, V domains shown) VH: QIQLVQSGGGLVKPGGSLKLSCAASGFTFSDYYMSWVRQTPEKRLEWVATISDGGSYTYYPDSVKGRFTISRDNAKNNLYLHMSSLKSEDTAMYYCARGSTYGNPLDYWGQGTTLTVSS VL: DIQMTQTTSSLSASLGDRVTINCSASQGISNYLNWYQQKPDGTVKLLIYFTSSLHSGFPSRFSGSGSGTDFSLTISNLEPEDIATYYCQQYSKLPFTFGSGTKLEIK | no binding | 1.51 | 0.9 | –
NP3-F10 (antibody, V domains shown) VH: EVQLQQSGAELVEPGAPVKLSCKAFGYTFTSYWMNWVKQRPGRGLEWIGRIDPSDSETHYNQNFKDKAALTVDRSSSTAYIHLSSLTSEDSAVYYCAREVTTATKGVFSWLAYWGQGTLVTVSA VL: DIQMTQTTSSLSASLGDRVTISCSASQDISDYLNWYQQKPDGTIKLLIYYTSSLHSGAPSRFSGSGSGTDYSLTISNLEPEDIATYYCQQYSKLPWTFGGGTKLELK | no binding | 2.53 | 5.6 | –
NP3-G6 (antibody, V domains shown) VH: EVQLVESGGGLVKPGGSLKLSCAASGFTFSDYYMSWVRQTPEKRLEWVATISDGGSYTYYPDSVKGRFTISRDNAKNNLYLHMSSLKSEDTAMYYCARGSTYGNPLDYWGQGTSVTVSS VL: DIQMTQSPASLSASLGDRVTINCSASQGISNYLNWYQQKPDGTVKLLIYFTSSLHSGFPSRFSGSGSGTDFSLTISNLEPEDIATYYCQQYSKLPFTFGSGTKLEIK | no binding | 0.43 | 0.88 | –
NP3-E5 (antibody, V domains shown) VH: EVQLVESGGGLVKPGGSLKLSCAASGFTFSDYYMSWVRQTPEKRLEWVATISDGGNYTYYPDSVKGRFTISRDNAKNNLYLQMSSLKSEDTAMYYCARGSTYGNPLDHWGQGTTLTVSS VL: DIQMTQTTSSLSASLGDRVTINCSASQGISNYLNWYQQKPDGTVKLLIYYTSILHSGVPSRFSGSGSGTDYSLTISNLEPEDIATYYCQQYSKLPFTFGSGTKLEIK | no binding | 0.8 | 1.38 | –
NP3-F7 (antibody, V domains shown) VH: EVQLQQSGAELVRPGSSVKISCKASGYAFSSYWMNWVKQRPGQGLEWIGQIYPGNGDTYYNGKFMGKATLTADKFSSTAYMQLSGLTSEDSAVYFCARRPLFYAMDYWGQGTSVTVSS VL: DIVLTQSPGSLAVSLGQRATISCKASQSVDYDGDSYMNWYQQKPGQPPKLLIYAASNLESGIPVRFSGSGSGTDFTLNIHPVEEEDAATYYCQQSNEDPWTFGGGTKLELK | – | – | – | no binding
